Measurements as given in article PMC3818285, “Increased Biomass, Seed Yield and Stress Tolerance Is Conferred in Arabidopsis by a Novel Enzyme from the Resurrection Grass Sporobolus stapfianus That Glycosylates the Strigolactone Analogue GR24” (PLoS ONE, 2013).

Substrate: [H][C@]12Cc3ccccc3[C@@]1([H])OC(=O)/C2=C/O[C@@H]1C=C(C)C(=O)O1
Assay: coupled enzyme assay (NADH oxidation), Lineweaver-Burk plot
Format: biochemical, Sporobolus stapfianus
Details: pH 7.4, leaf protein extract 25 µg, background without substrate subtracted, vector-only control extract

B1: SDG8i (Sporobolus stapfianus) (protein)
chain: MTKTVVLYPIRGAGHLTPMIQLARLFLQHGGFNVTVAIGSSPEDSDFSALVARAAAANPSVTFHILPQPSSTPDGSNTDVTPKHKHPVVHLFDTLGAMNAPLRDFLRSLPAVDALVVDMFCYDALDVAAELELPAYFLYASGAGDLAVFLNLPSARAGMTTSFAELGDTLLTLPGAPPFKASDLPADAINDNEVARCTRRMFERMPESHGILVNSFEALETRAVRALRDGLCVPDRATPPIYCIGPLVSGGGGEKEHECLRWLDAQPDNSVVFLCFGSMGTFSKKQLHDIAVGLEKSEQRFLWVVRSPRSDDHKFGEPRPELDLDAFLRDGFLERTKERGLVLKSWAPQVDVLHHRATGAFVTHCGWNSTLEGIMAGIPLLCWPLYAEQRMNKVFIVDELKLGVEMRGYNQEVVKAEEVESKVRWVLESEAGQAIRERVLAMKDKAAEALKEGGPSHVEFVKFLKDLEAVGRP
notes: unpurified leaf protein extract; no tag stated
B1 was tested, and the Km was 349 µM.
